Data set [1] concerns PR402: SP(HSA)-PTEN-L-HSA-6xHis (secreted, mature form).
Data set [2] has as its system PR405: SP(HSA)-PTEN-L-MMP2/9-HSA-6xHis (secreted form).
Data set [3] relates to PR406: SP(HSA)-PTEN-L-cathepsin B-HSA-6xHis (secreted form).
The test system of data set [4] is PR407: SP(HSA)-PTEN-L-cathepsin B*-HSA-6xHis (secreted form).
In data set [5] the test system is PR408: SP(HSA)-PTEN-L-cathepsinB**-HSA-6xHis (secreted form).

Sequence of recombinant active MMP2 protease (Enzo cat. #BML-SE237-0010) (chain, as listed by the source): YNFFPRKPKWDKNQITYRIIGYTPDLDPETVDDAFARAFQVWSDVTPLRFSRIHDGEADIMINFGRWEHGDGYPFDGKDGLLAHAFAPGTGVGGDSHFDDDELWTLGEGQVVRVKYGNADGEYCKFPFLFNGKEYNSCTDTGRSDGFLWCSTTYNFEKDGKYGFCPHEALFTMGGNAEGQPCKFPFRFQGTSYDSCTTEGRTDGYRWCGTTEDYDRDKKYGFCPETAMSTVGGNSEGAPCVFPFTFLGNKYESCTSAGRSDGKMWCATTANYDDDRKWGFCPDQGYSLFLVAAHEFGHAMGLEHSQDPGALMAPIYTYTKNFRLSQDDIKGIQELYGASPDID

For the substance “active CATSB (Cathepsin B; BioVision #7580-5)”, in data set [1], the “in vitro cleavage of the fusion (F-1 anti-PTEN western blot of digests at t=0, 4 h, 21 h)” value is on record as “PR402 was not appreciably cleaved by either recombinant MMP2 or CATSB”. Further, the “in vitro cleavage of the fusion” value in data set [2] was “PR405 (SEQ ID NO:129; cDNA SEQ ID NO:157) was not cleaved by CATSB”; in data set [3] it was “though it did not cleave PR406 (SEQ ID NO:130; cDNA SEQ ID NO:158)”. Also, the “pH dependence of in vitro cleavage (pH 5.0 against pH 7.0 buffer)” value in data set [4] was “CATSB only cleaves PR407 and PR408 at a low pH (FIG. 15)”; in data set [5], “CATSB only cleaves PR407 and PR408 at a low pH (FIG. 15)”.
As to “recombinant active MMP2 protease (Enzo cat. #BML-SE237-0010)”, the “in vitro cleavage of the fusion (F-1 anti-PTEN western blot of digests at t=0, 4 h, 21 h)” value in data set [1] is on record as “PR402 was not appreciably cleaved by either recombinant MMP2 or CATSB”. For the same substance, the “in vitro cleavage of the fusion, release of a PTEN-L-like fragment (~70 KDa)” value in data set [2] is on record as “MMP2 did however cleave its consensus site (SEQ ID NO:165) on PR405 only; this cleavage released a PTEN-L-like fragment (~70 KDa)”. Besides, the “in vitro cleavage of the fusion” value in data set [3], in data set [4] and in data set [5] was “MMP2 did however cleave its consensus site (SEQ ID NO:165) on PR405 only” throughout.

Values taken from US20210079423.
